# Test results as given in US12331073B2, “Preparation of biologically active complexes” (priority 2017, dated 2025).
# What was measured:
# [1] = test system: tumour cells; test: Inherent tumoricidal effect of oleate salts
# [2] = test system: Human lung carcinoma cells (A549, ATCC); test: Cell death assay (ATPlite, PrestoBlue, trypan blue exclusion); format: cell-based
# Procedure: Human lung carcinoma cells (A549, ATCC) were cultured in RPMI-1640 with non-essential amino acids (1:100), 1 mM sodium pyruvate, 50 μg/ml Gentamicin and 5-10% fetal calf serum (FCS) at 37° C., 5% CO2. For cell death experiment, cells were grown on 96-well plate (2×10^4/well, Tecan Group Ltd) overnight. Cells were incubated with biologically active complexes obtained in Example 1 at dosages equivalent to either 7, 21 or 35 μM peptide in serum-free RPMI-1640 at 37° C. FCS was added after 1 hour. Cell death was quantified 3 hours after peptide-oleate treatment by three biochemical methods including 1) estimation of cellular ATP levels using luminescence based ATPlite™ kit (Perkin Elmer) 2) Presto Blue fluorescence staining (Invitrogen, A13262) and 3) trypan blue exclusion assay. Fluorescence and luminescence were measured using a microplate reader (Infinite F200, Tecan).
# [3] = test system: glioblastoma xenograft; settings: rat glioblastoma xenograft model; cited from earlier work
# [4] = test system: bladder cancer; settings: local instillations; cited from earlier work
# [5] = test system: bladder cancer; settings: murine bladder cancer model; cited from earlier work
# [6] = test system: tumor cells; settings: early in vitro experiments; cited from earlier work
# [7] = test system: skin papillomas; settings: topical administration, placebo controlled clinical study; cited from earlier work
# [8] = test system: cells; settings: Vukojevic et al. Langmuir 2010; cited from earlier work
molecule,measurement,setting,value
CCCCCCCC/C=C\CCCCCCCC(=O)[O-].[Na+] [sodium oleate],inherent tumoricidal effect,[1],appear to have some inherent tumoricidal effect
"BAMLET: bovine alpha-lactalbumin (700 μM) and sodium oleate (3.5 mM) dissolved in Phosphate Buffered Saline by vortexing (protein, UniProt P00711 20-142, looked up, complex with sodium oleate, bovine alpha-lactalbumin (700 μM) and sodium oleate (3.5 mM) dissolved in Phosphate Buffered Saline by vortexing) Alpha-lactalbumin: EQLTKCEVFRELKDLKGYGGVSLPEWVCTTFHTSGYDTQAIVQNNDSTEYGLFQINNKIWCKDDQNPHSSNICNISCDKFLDDDLTDDIMCVKKILDKVGINYWLAHKALCSEKLDQWLCEKL",activity after lyophilisation of the complex,[2]; after lyophilisation,removed the activity
same,tumour cell death activity of freshly prepared solution,"[2]; solution in PBS vortexed at room temperature, FIG. 4",biologically active and killed A549 lung carcinoma cells in a dose dependent manner
"HAMLET (protein, UniProt P00709 20-142, looked up, complex with oleic acid) Alpha-lactalbumin: KQFTKCELSQLLKDIDGYGGIALPELICTMFHTSGYDTQAIVENNESTEYGLFQISNKLWCKSSQVPQSRNICDISCDKFLDDDITDDIMCAKKILDIKGIDYWLAHKALCTEKLEQWLCEKL",cell death in healthy brain tissue,[3],without evidence of cell death in healthy brain tissue
same,tumor progression and survival,[3],delayed tumor progression and led to increased survival
same,tumor cell death in bladder cancer patients,[4],caused rapid death of tumor cells but not of healthy tissue surrounding the tumor
same,therapeutic efficacy in bladder cancer,[5],Therapeutic efficacy
same,anti-tumor activity in vitro,[6],broad anti-tumor activity with a high degree of tumor selectivity
same,effect on skin papillomas,[7],removed or reduced the size of skin papillomas
"complexes using equine lysozyme and oleic acid: complexes using equine lysozyme and oleic acid (Vukojevic et al.) (protein, UniProt P11376 1-129, looked up, complex with oleic acid) Lysozyme C, milk isozyme: KVFSKCELAHKLKAQEMDGFGGYSLANWVCMAEYESNFNTRAFNGKNANGSSDYGLFQLNNKWWCKDNKRSSSNACNIMCSKLLDENIDDDISCAKRVVRDPKGMSAWKAWVKHCKDKDLSEYLASCNL",cell death,[8],found to produce cell death
